In article PMC8260561 (Cell Reports, 2021) one finds EC50 data, which are given here for 1 molecule.

What is called EC50 is the concentration at which the effect is half-maximal. Read a high EC50 as weaker potency.

For the experiment, the target named is S1-mFc (SARS-CoV-2 S1 subunit, fusion protein with murine Fc part) (SARS-CoV-2 Wuhan-Hu-1 (MN908947), UniProt P0DTC2). Briefly: ELISA.

B1: STE90-C11 IgG (human IgG1 with silenced Fc) (antibody, V domains shown)
VH: QVQLVESGGGLVQPGGSLRLSCAASGLTVSSNYMSWVRQAPGKGLEWVSVIYSGGSTYYADSVKGRFTISRDDSKNTLYLQMNSLRAEDTAVYYCARDVADAFDIWGQGTMVTVSS
VL: DIVMTQSPSFLSASVGDRVTITCRASQGISSYLAWYQQKPGKAPKLLIYAASTLQSGVPSRFSGSGSGTEFTLTISSLQPEDFATYYCQQLNSYPPFTFGPGTKVDIK
Molecule B1 registered an EC50 of 0.2 nM.
